B1: SC16.56 (antibody, human IgG1, kappa, V domains shown)
VH: QVQLVQSGAEVKKPGASVKVSCKASGYTFTNYGMNWVRQAPGQGLEWMGWINTYTGEPTYADDFKGRVTMTTDTSTSTAYMELRSLRSDDTAVYYCARIGDSSPSDYWGQGTLVTVSS
VL: EIVMTQSPATLSVSPGERATLSCKASQSVSNDVVWYQQKPGQAPRLLIYYASNRYTGIPARFSGSGSGTEFTLTISSLQSEDFAVYYCQQDYTSPWTFGQGTKLEIKR
notes: expressed in the complete IgG format; variable regions from US20200138969A1; also called control antibody
B2: Hab015VL4VH6b-hFc (Fc fusion)
scFv (part 1 of 2): NIVLTQSPATLSLSPGERATLSCKASENVGTYVSWFQQKPGQSPRLLIYGASNRYTGIPARFSGSGSGTDFTLTISSLEPEDFAVYYCGQFYSFPSTFGGGTKVEIK
scFv (part 2 of 2): EVQLVESGGGLVKPGGSLRLSCAASGITFSNFWMNWVRQAPEKGLEWVGQIRLKSDQYATHYAESVKGRFTISREDSKNTVYLQMNSLKTEDTAVYYCTTGYYFDYWGQGTTVTVSS
notes: humanized mab015, VL-linker-VH-human IgG1 Fc; also called Hab015L4H6b; not shown: linker; human IgG1 Fc fragment
B3: BI3 (antibody, human IgG1, kappa, V domains shown)
VH: QVQLVQSGAEVKKPGASVKVSCKASGYTFTSYYVHWVRQAPGQGLEWMVIINPGGGTTSYAQKFLGRVTMTRDTSTNTVYMELKSLRSEDTAVYYCARGEAVTGNYFYYGMDVWGQGTTVTVSS
VL: DIQMTQSPSAMSASVGDRVTITCRASQGISNYLVWFQQKPGKAPKRLIYAVSSLYSGVPSRFSGSGSGTEFTLTISSLQPEDFATYYCLQHDSYPYTFGQGTKLEIKR
notes: expressed in the complete IgG format; variable regions from WO2019234220A1; also called control antibody

What was measured:
monkey DLL3-his protein = target: T1, monkey DLL3-his protein (cynomolgus monkey, UniProt Q9NYJ7 27-490 (human entry)); experiment: ELISA, coated DLL3-his
T1 construct: a bought cynomolgus DLL3-His (Acro DL3-C52H3) is also named; also called monkey DLL3 protein; cynomolgus monkey DLL3-His; not shown: His tag
T1 chain: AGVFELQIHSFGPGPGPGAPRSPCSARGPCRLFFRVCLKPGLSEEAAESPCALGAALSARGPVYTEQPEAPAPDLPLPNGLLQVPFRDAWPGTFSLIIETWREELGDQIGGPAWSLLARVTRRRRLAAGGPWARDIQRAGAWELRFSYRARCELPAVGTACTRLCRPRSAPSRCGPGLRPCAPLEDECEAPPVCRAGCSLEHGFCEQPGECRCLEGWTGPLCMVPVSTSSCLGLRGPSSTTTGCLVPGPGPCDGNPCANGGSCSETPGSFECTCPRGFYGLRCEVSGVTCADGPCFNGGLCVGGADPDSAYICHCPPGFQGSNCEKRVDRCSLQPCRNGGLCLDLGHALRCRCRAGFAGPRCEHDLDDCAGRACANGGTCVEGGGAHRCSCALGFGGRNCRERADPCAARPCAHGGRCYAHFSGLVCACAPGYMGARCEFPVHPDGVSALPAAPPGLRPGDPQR

human DLL3-his protein [1] = target: T2, human DLL3-his protein (human, UniProt Q9NYJ7 27-492); experiment: ELISA, coated DLL3-his
T2 construct: also called human DLL3 protein; DLL3 antigen protein; not shown: His tag
T2 sequence: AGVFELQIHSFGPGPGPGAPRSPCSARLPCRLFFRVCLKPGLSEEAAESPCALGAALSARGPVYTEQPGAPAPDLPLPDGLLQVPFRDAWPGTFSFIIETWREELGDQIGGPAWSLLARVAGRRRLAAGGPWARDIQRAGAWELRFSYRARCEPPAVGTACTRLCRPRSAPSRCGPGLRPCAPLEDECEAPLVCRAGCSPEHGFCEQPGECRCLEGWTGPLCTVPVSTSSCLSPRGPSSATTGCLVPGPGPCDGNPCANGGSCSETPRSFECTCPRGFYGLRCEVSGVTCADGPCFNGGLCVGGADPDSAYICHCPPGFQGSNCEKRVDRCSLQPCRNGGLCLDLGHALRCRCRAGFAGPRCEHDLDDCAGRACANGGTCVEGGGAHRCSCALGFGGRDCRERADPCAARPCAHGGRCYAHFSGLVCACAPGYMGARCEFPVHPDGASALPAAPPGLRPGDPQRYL

human DLL3-his protein [2] = target: T2, human DLL3-his protein; experiment: SPR Biacore 8K, antibody captured on Protein A

Row | Binder | binding result (monkey DLL3-his protein) | binding result (human DLL3-his protein [1]) | binding result (human DLL3-his protein [2])
1 | B1 | binds | binds | 
2 | B2 |  |  | binds
3 | B3 | binds |  | 

Reference: EP4786492A1 (Simcere Zaiming Pharmaceutical Co., Ltd., dated 2026)
